How the values were obtained:
HeLa Kyoto [1] = test: thermal stability score vs G1/S (z-score of summed log2 fold changes over temperatures); higher = more thermally stable than in G1/S
HeLa Kyoto [2] = test: solubility change mitosis vs G1/S (difference of NP-40 vs SDS log2 ratios) (log2 ratio difference); higher = more soluble in mitosis
HeLa Kyoto [3] = test: melting temperature (median over replicates), in situ; higher = more thermally stable
HeLa Kyoto [4] = test: solubility in G1/S (NP-40 vs SDS abundance) (log2 ratio); higher = more soluble; conditions: cell cycle stage: G1/S
[5] = cell cycle stage: early G1 (4.5 h after nocodazole release)
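For melting temperature (median over replicates), in situ in this document: HeLa Kyoto cells synchronized by double thymidine or nocodazole block, proteins quantified by TMT10plex mass spectrometry, three independent biological replicates.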
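For solubility change mitosis vs G1/S (difference of NP-40 vs SDS log2 ratios) in this document: synchronized HeLa Kyoto cells (double thymidine block for G1/S, nocodazole release for mitosis), protein amounts in NP-40 versus SDS lysates quantified by mass spectrometry, three biological replicates.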
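For solubility in G1/S (NP-40 vs SDS abundance) in this document: HeLa Kyoto cells arrested at G1/S by double thymidine block, proteins quantified by TMT10plex mass spectrometry in mild NP-40 versus SDS extracts, three biological replicates.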
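For thermal stability score vs G1/S (z-score of summed log2 fold changes over temperatures) in this document: synchronized HeLa Kyoto cells, proteins quantified by TMT10plex mass spectrometry, three biological replicates, mitosis taken 0.5 h after nocodazole release, G1/S directly after double thymidine block.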

Chain of MAT2A (chain, as listed by the source): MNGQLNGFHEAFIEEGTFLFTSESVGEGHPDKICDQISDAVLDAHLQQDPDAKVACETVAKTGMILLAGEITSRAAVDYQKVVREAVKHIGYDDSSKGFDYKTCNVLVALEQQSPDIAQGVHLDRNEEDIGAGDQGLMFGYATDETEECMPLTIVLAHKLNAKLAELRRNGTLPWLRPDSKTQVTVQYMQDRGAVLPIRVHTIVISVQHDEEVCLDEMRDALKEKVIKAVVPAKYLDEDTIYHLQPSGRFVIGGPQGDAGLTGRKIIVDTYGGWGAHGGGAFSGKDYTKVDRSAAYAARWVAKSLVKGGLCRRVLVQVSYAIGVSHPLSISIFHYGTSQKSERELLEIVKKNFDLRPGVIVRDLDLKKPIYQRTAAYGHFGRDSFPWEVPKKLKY
Chain of PSMA6 (chain, as listed by the source): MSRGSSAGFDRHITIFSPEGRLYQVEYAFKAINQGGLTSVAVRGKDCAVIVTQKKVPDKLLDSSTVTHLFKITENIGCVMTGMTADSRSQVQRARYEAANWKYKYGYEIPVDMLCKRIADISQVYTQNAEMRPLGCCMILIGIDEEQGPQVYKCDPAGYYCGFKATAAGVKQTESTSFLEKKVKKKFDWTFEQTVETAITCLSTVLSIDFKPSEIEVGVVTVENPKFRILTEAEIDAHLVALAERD
Chain of HSPA5 (chain, as listed by the source): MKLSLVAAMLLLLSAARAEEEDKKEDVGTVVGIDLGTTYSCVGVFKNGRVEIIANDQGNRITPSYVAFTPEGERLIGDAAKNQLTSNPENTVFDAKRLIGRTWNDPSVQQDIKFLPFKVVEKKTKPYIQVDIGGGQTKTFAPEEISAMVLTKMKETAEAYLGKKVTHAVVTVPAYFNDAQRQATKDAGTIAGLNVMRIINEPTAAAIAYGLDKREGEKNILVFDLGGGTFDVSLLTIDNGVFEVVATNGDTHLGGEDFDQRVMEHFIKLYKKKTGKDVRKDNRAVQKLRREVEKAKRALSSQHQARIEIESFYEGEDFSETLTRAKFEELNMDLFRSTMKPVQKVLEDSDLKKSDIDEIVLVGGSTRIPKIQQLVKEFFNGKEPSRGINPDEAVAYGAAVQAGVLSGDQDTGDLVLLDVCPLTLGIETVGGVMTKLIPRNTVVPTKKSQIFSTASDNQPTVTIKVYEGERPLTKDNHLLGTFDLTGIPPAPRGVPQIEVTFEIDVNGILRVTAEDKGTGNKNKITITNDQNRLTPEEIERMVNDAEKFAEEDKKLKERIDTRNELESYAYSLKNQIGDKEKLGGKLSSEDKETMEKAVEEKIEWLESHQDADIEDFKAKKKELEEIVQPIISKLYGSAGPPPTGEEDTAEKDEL

Row | Substance | thermal stability score (HeLa Kyoto [1]; [5]) | thermal stability score (HeLa Kyoto [1]; cell cycle stage: mitosis) | solubility change mitosis (log2) (HeLa Kyoto [2]) | melting temperature (HeLa Kyoto [3]; cell cycle stage: G1/S) [°C] | melting temperature (HeLa Kyoto [3]; cell cycle stage: mitosis) [°C] | solubility in G1/S (log2) (HeLa Kyoto [4])
1 | MAAPAQPKKIVAPTVSQINAEFVTQLACKYWAPHIKKKSPFDIKVIEDIYEKEIVKSRFAIRKIMLLEFSQYLENYLWMNYSPEVSSKAYLMSICCMVNEKFRENVPAWEIFKKKPDHFPFFFKHILKAALAETDGEFSLHEQTVLLLFLDHCFNSLEVDLIRSQVQQLISLPMWMGLQLARLELELKKTPKLRKFWNLIKKNDEKMDPEAREQAYQERRFLSQLIQKFISVLKSVPLSEPVTMDKVHYCERFIELMIDLEALLPTRRWFNTILDDSHLLVHCYLSNLVRREEDGHLFSQLLDMLKFYTGFEINDQTGNALTENEMTTIHYDRITSLQRAAFAHFPELYDFALSNVAEVDTRESLVKFFGPLSSNTLHQVASYLCLLPTLPKNEDTTFDKEFLLELLVSRHERRISQIQQLNQMPLYPTEKIIWDENIVPTEYYSGEGCLALPKLNLQFLTLHDYLLRNFNLFRLESTYEIRQDIEDSVSRMKPWQSEYGGVVFGGWARMAQPIVAFTVVEVAKPNIGENWPTRVRADVTINLNVRDHIKDEWEGLRKHDVCFLITVRPTKPYGTKFDRRRPFIEQVGLVYVRGCEIQGMLDDKGRVIEDGPEPRPNLRGESRTFRVFLDPNQYQQDMTNTIQNGAEDVYETFNIIMRRKPKENNFKAVLETIRNLMNTDCVVPDWLHDIILGYGDPSSAHYSKMPNQIATLDFNDTFLSIEHLKASFPGHNVKVTVEDPALQIPPFRITFPVRSGKGKKRKDADVEDEDTEEAKTLIVEPHVIPNRGPYPYNQPKRNTIQFTHTQIEAIRAGMQPGLTMVVGPPGTGKTDVAVQIISNIYHNFPEQRTLIVTHSNQALNQLFEKIMALDIDERHLLRLGHGEEELETEKDFSRYGRVNYVLARRIELLEEVKRLQKSLGVPGDASYTCETAGYFFLYQVMSRWEEYISKVKNKGSTLPDVTEVSTFFPFHEYFANAPQPIFKGRSYEEDMEIAEGCFRHIKKIFTQLEEFRASELLRSGLDRSKYLLVKEAKIIAMTCTHAALKRHDLVKLGFKYDNILMEEAAQILEIETFIPLLLQNPQDGFSRLKRWIMIGDHHQLPPVIKNMAFQKYSNMEQSLFTRFVRVGVPTVDLDAQGRARASLCNLYNWRYKNLGNLPHVQLLPEFSTANAGLLYDFQLINVEDFQGVGESEPNPYFYQNLGEAEYVVALFMYMCLLGYPADKISILTTYNGQKHLIRDIINRRCGNNPLIGRPNKVTTVDRFQGQQNDYILLSLVRTRAVGHLRDVRRLVVAMSRARLGLYIFARVSLFQNCFELTPAFSQLTARPLHLHIIPTEPFPTTRKNGERPSHEVQIIKNMPQMANFVYNMYMHLIQTTHHYHQTLLQLPPAMVEEGEEVQNQETELETEEEAMTVQADIIPSPTDTSCRQETPAFQTDTTPSETGATSTPEAIPALSETTPTVVGAVSAPAEANTPQDATSAPEETK [AQR] | 0.352 | 2.51 | 0.0502 | 48 | 50 | -0.435
2 | MMHFKSGLELTELQNMTVPEDDNISNDSNDFTEVENGQINSKFISDRESRRSLTNSHLEKKKCDEYIPGTTSLGMSVFNLSNAIMGSGILGLAFALANTGILLFLVLLTSVTLLSIYSINLLLICSKETGCMVYEKLGEQVFGTTGKFVIFGATSLQNTGAMLSYLFIVKNELPSAIKFLMGKEETFSAWYVDGRVLVVIVTFGIILPLCLLKNLGYLGYTSGFSLSCMVFFLIVVIYKKFQIPCIVPELNSTISANSTNADTCTPKYVTFNSKTVYALPTIAFAFVCHPSVLPIYSELKDRSQKKMQMVSNISFFAMFVMYFLTAIFGYLTFYDNVQSDLLHKYQSKDDILILTVRLAVIVAVILTVPVLFFTVRSSLFELAKKTKFNLCRHTVVTCILLVVINLLVIFIPSMKDIFGVVGVTSANMLIFILPSSLYLKITDQDGDKGTQRIWAALFLGLGVLFSLVSIPLVIYDWACSSSSDEGH [SLC38A1] | -1.68 | -3.89 | -0.24 | 57.8 | 59.4 | -0.379
3 | MAAETQTLNFGPEWLRALSSGGSITSPPLSPALPKYKLADYRYGREEMLALFLKDNKIPSDLLDKEFLPILQEEPLPPLALVPFTEEEQRNFSMSVNSAAVLRLTGRGGGGTVVGAPRGRSSSRGRGRGRGECGFYQRSFDEVEGVFGRGGGREMHRSQSWEERGDRRFEKPGRKDVGRPNFEEGGPTSVGRKHEFIRSESENWRIFREEQNGEDEDGGWRLAGSRRDGERWRPHSPDGPRSAGWREHMERRRRFEFDFRDRDDERGYRRVRSGSGSIDDDRDSLPEWCLEDAEEEMGTFDSSGAFLSLKKVQKEPIPEEQEMDFRPVDEGEECSDSEGSHNEEAKEPDKTNKKEGEKTDRVGVEASEETPQTSSSSARPGTPSDHQSQEASQFERKDEPKTEQTEKAEEETRMENSLPAKVPSRGDEMVADVQQPLSQIPSDTASPLLILPPPVPNPSPTLRPVETPVVGAPGMGSVSTEPDDEEGLKHLEQQAEKMVAYLQDSALDDERLASKLQEHRAKGVSIPLMHEAMQKWYYKDPQGEIQGPFNNQEMAEWFQAGYFTMSLLVKRACDESFQPLGDIMKMWGRVPFSPGPAPPPHMGELDQERLTRQQELTALYQMQHLQYQQFLIQQQYAQVLAQQQKAALSSQQQQQLALLLQQFQTLKMRISDQNIIPSVTRSVSVPDTGSIWELQPTASQPTVWEGGSVWDLPLDTTTPGPALEQLQQLEKAKAAKLEQERREAEMRAKREEEERKRQEELRRQQEEILRRQQEEERKRREEEELARRKQEEALRRQREQEIALRRQREEEERQQQEEALRRLEERRREEEERRKQEELLRKQEEEAAKWAREEEEAQRRLEENRLRMEEEAARLRHEEEERKRKELEVQRQKELMRQRQQQQEALRRLQQQQQQQQLAQMKLPSSSTWGQQSNTTACQSQATLSLAEIQKLEEERERQLREEQRRQQRELMKALQQQQQQQQQKLSGWGNVSKPSGTTKSLLEIQQEEARQMQKQQQQQQQHQQPNRARNNTHSNLHTSIGNSVWGSINTGPPNQWASDLVSSIWSNADTKNSNMGFWDDAVKEVGPRNSTNKNKNNASLSKSVGVSNRQNKKVEEEEKLLKLFQGVNKAQDGFTQWCEQMLHALNTANNLDVPTFVSFLKEVESPYEVHDYIRAYLGDTSEAKEFAKQFLERRAKQKANQQRQQQQLPQQQQQQPPQQPPQQPQQQDSVWGMNHSTLHSVFQTNQSNNQQSNFEAVQSGKKKKKQKMVRADPSLLGFSVNASSERLNMGEIETLDDY [GIGYF2] | 0.406 | 0.959 | -0.00842 | 49.4 | 49.8 | -0.0985
4 | MAFAETYPAASSLPNGDCGRPRARPGGNRVTVVLGAQWGDEGKGKVVDLLAQDADIVCRCQGGNNAGHTVVVDSVEYDFHLLPSGIINPNVTAFIGNGVVIHLPGLFEEAEKNVQKGKGLEGWEKRLIISDRAHIVFDFHQAADGIQEQQRQEQAGKNLGTTKKGIGPVYSSKAARSGLRMCDLVSDFDGFSERFKVLANQYKSIYPTLEIDIEGELQKLKGYMEKIKPMVRDGVYFLYEALHGPPKKILVEGANAALLDIDFGTYPFVTSSNCTVGGVCTGLGMPPQNVGEVYGVVKAYTTRVGIGAFPTEQDNEIGELLQTRGREFGVTTGRKRRCGWLDLVLLKYAHMINGFTALALTKLDILDMFTEIKVGVAYKLDGEIIPHIPANQEVLNKVEVQYKTLPGWNTDISNARAFKELPVNAQNYVRFIEDELQIPVKWIGVGKSRESMIQLF [ADSS] | -2.13 | -2.82 | -0.0978 | 57.5 | 56.5 | 0.288
5 | MAT2A | -0.032 | 0.349 | -0.123 | 57 | 57.3 | -0.00612
6 | PSMA6 | -1.86 | -3.6 | 0.0779 | 62.9 | 60.9 | -0.0362
7 | MAETAAGVGRFKTNYAVERKIEPFYKGGKAQLDQTGQHLFCVCGTRVNILEVASGAVLRSLEQEDQEDITAFDLSPDNEVLVTASRALLLAQWAWQEGSVTRLWKAIHTAPVATMAFDPTSTLLATGGCDGAVRVWDIVRHYGTHHFRGSPGVVHLVAFHPDPTRLLLFSSATDAAIRVWSLQDRSCLAVLTAHYSAVTSLAFSADGHTMLSSGRDKICIIWDLQSCQATRTVPVFESVEAAVLLPEEPVSQLGVKSPGLYFLTAGDQGTLRVWEAASGQCVYTQAQPPGPGQELTHCTLAHTAGVVLTATADHNLLLYEARSLRLQKQFAGYSEEVLDVRFLGPEDSHVVVASNSPCLKVFELQTSACQILHGHTDIVLALDVFRKGWLFASCAKDQSVRIWRMNKAGQVMCVAQGSGHTHSVGTVCCSRLKESFLVTGSQDCTVKLWPLPKALLSKNTAPDNGPILLQAQTTQRCHDKDINSVAIAPNDKLLATGSQDRTAKLWALPQCQLLGVFSGHRRGLWCVQFSPMDQVLATASADGTIKLWALQDFSCLKTFEGHDASVLKVAFVSRGTQLLSSGSDGLVKLWTIKNNECVRTLDAHEDKVWGLHCSRLDDHALTGASDSRVILWKDVTEAEQAEEQARQEEQVVRQQELDNLLHEKRYLRALGLAISLDRPHTVLTVIQAIRRDPEACEKLEATMLRLRRDQKEALLRFCVTWNTNSRHCHEAQAVLGVLLRREAPEELLAYEGVRAALEALLPYTERHFQRLSRTLQAAAFLDFLWHNMKLPVPAAAPTPWETHKGALP [TBL3] | 1.58 | -0.746 | 0.233 | 50.6 | 51.3 | -0.936
8 | MALAARLWRLLPFRRGAAPGSRLPAGTSGSRGHCGPCRFRGFEVMGNPGTFKRGLLLSALSYLGFETYQVISQAAVVHATAKVEEILEQADYLYESGETEKLYQLLTQYKESEDAELLWRLARASRDVAQLSRTSEEEKKLLVYEALEYAKRALEKNESSFASHKWYAICLSDVGDYEGIKAKIANAYIIKEHFEKAIELNPKDATSIHLMGIWCYTFAEMPWYQRRIAKMLFATPPSSTYEKALGYFHRAEQVDPNFYSKNLLLLGKTYLKLHNKKLAAFWLMKAKDYPAHTEEDKQIQTEAAQLLTSFSEKN [RMDN1] | -0.229 | -1.17 | 0.0519 | 52 | 52.9 | 0.16
9 | MAGYLRVVRSLCRASGSRPAWAPAALTAPTSQEQPRRHYADKRIKVAKPVVEMDGDEMTRIIWQFIKEKLILPHVDIQLKYFDLGLPNRDQTDDQVTIDSALATQKYSVAVKCATITPDEARVEEFKLKKMWKSPNGTIRNILGGTVFREPIICKNIPRLVPGWTKPITIGRHAHGDQYKATDFVADRAGTFKMVFTPKDGSGVKEWEVYNFPAGGVGMGMYNTDESISGFAHSCFQYAIQKKWPLYMSTKNTILKAYDGRFKDIFQEIFDKHYKTDFDKNKIWYEHRLIDDMVAQVLKSSGGFVWACKNYDGDVQSDILAQGFGSLGLMTSVLVCPDGKTIEAEAAHGTVTRHYREHQKGRPTSTNPIASIFAWTRGLEHRGKLDGNQDLIRFAQMLEKVCVETVESGAMTKDLAGCIHGLSNVKLNEHFLNTTDFLDTIKSNLDRALGRQ [IDH2] | -0.161 | 0.659 | -0.113 | 53.7 | 54.1 | 0.137
10 | MATKCGNCGPGYSTPLEAMKGPREEIVYLPCIYRNTGTEAPDYLATVDVDPKSPQYCQVIHRLPMPNLKDELHHSGWNTCSSCFGDSTKSRTKLVLPSLISSRIYVVDVGSEPRAPKLHKVIEPKDIHAKCELAFLHTSHCLASGEVMISSLGDVKGNGKGGFVLLDGETFEVKGTWERPGGAAPLGYDFWYQPRHNVMISTEWAAPNVLRDGFNPADVEAGLYGSHLYVWDWQRHEIVQTLSLKDGLIPLEIRFLHNPDAAQGFVGCALSSTIQRFYKNEGGTWSVEKVIQVPPKKVKGWLLPEMPGLITDILLSLDDRFLYFSNWLHGDLRQYDISDPQRPRLTGQLFLGGSIVKGGPVQVLEDEELKSQPEPLVVKGKRVAGGPQMIQLSLDGKRLYITTSLYSAWDKQFYPDLIREGSVMLQVDVDTVKGGLKLNPNFLVDFGKEPLGPALAHELRYPGGDCSSDIWI [SELENBP1] | -0.479 | -0.737 | -0.131 | 59.7 | 60.9 | 0.265
11 | KPNA6 | 1.85 | 4.59 | -0.0516 | 47.6 | 48.8 | 0.0416
12 | HSPA5 | 3.25 | 3.15 | 0.0735 | 55.5 | 56.9 | 0.316

Reference: the supplement of paper PMC5998384
